From patent US20190263905A1 (DINONA, published 2019) come the findings set out here.

The labels stand for the following.
T1: CEACAM1 antigen (Sino Biological, Inc.) (UniProt P13688 35-428)
T1 construct: Bought antigen coated on the ELISA plate; construct not described; also called CEACAM1 (CD66a) antigen; CD66a
T1 sequence (looked up): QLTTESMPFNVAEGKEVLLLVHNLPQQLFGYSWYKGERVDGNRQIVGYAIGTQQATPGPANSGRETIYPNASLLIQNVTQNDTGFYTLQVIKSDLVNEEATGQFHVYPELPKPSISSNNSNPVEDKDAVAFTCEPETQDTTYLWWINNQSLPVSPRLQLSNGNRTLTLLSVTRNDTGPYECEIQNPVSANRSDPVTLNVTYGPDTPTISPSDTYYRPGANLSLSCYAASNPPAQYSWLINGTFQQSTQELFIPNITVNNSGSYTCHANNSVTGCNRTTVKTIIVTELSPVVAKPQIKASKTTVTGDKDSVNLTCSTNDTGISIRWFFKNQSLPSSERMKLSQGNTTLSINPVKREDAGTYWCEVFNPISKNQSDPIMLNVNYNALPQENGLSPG

T2: Antigen CD66c (CEACAM6; Sino Biological, Inc.) (UniProt P40199 35-320)
T2 construct: Bought antigen coated on the ELISA plate; construct not described; also called CD66c antigen; CECACAM6
T2 sequence (looked up): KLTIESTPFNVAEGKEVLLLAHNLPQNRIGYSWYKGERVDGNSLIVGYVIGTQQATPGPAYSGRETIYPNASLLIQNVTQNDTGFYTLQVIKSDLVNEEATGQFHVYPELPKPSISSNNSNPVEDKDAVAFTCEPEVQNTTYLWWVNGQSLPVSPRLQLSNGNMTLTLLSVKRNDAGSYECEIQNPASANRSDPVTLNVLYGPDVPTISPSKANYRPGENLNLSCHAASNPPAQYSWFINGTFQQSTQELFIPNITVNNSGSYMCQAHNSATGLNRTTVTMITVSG

T3: CD66c (CEACAM6) on CD66c-positive A549 non-small-cell lung cancer cells (UniProt P40199 35-320, limits assumed)
T3 construct: whole, on cells; also called CD66c antigen; NCA-90
T3 sequence (looked up): T2 sequence (looked up)

B1: recombinant humanized anti-CD66c antibody Protein ID 3058 (Vk8 + VH11) (antibody, human IgG1, V domains shown)
VH: QVQLVQSGAEVKKPGASVKISCKASGYSFTDYTMHWVKQAPGQNLEWIGLINPFGGSTSYAQKFKGRVTMTRDTSTNTAYMELSRLRSDDTAVYYCVRGDPVRHYYALAYWGQGTLVTVSS
VL: DIQMTQSPSTLSASVGDRVTITCRASENVYGTLNWYQRKPGKAPKLLIYGATNLADGMPSRFSGSGSGTEYTLTISSLQPDDFATYYCQNVLSAPYTFGGGTKLEIK
notes: also called hu 3058; #86
B2: recombinant humanized anti-CD66c antibody Protein ID 3007 (Vk7 + VH6) (antibody, human IgG1, V domains shown)
VH: QVQLVQSGAEVKKPGASMKISCKASGYSFTDYTMNWVKQAPGQNLEWIGLINPFHGGTVSNQRFKVKATLTVDVSTNTAYMELSRLRSDDTAVYYCVRGDPVRHYYALAYWGQGTLVTVSS
VL: B1 VL with R24G, M58V
notes: also called hu 3007; #43
B3: recombinant humanized anti-CD66c antibody Protein ID 2938 (Vk5 + VH7) (antibody, human IgG1, V domains shown)
VH: B2 VH with K38R, N44G
VL: B1 VL with R24G, N34A, M58V, T69R
notes: also called hu 2938
B4: recombinant humanized anti-CD66c antibody Protein ID 3043 (Vk8 + VH6) (antibody, human IgG1, V domains shown)
VH: B2 VH
VL: B1 VL
notes: also called hu 3043; #71
B5: anti-CD66c chimeric antibody 8F5 (antibody, human IgG1, V domains shown)
VH: EVQLQQSGPELVKPGASMKISCKASGYSFTDYTMNWVKQSHGKNLEWIGLINPFHGGTVSNQRFKVKATLTVDVSSNTAYMELLSLTSDDSAVYYCVRGDPVRHYYALAYWGQGTSVTVSS
VL: DIQMTQSPASLSASVGETVTITCGASENVYGTLNWYQRKQGKSPQLLIYGATNLADGMSSRFSGSGSGRQYSLKISSLHPDDVATYYCQNVLSAPYTFGGGTKLEII
notes: also called chimeric 8F5 antibody; chi 8F5

Numbering of substitutions follows the chain as printed.

One assay has as its target T1, CEACAM1 antigen (Sino Biological, Inc.). Put plainly: ELISA, coated CEACAM1 100 ng/well, antibody 1.52 ng/ml. As for the experimental part:
(§1) Antigen CD66c (CEACAM6; Sino Biological, Inc.) and CEACAM1 antigen (Sino Biological, Inc.) were coated on a 96-well plate at 100 ng per well and then blocked. The primary antibody was diluted serially three fold from 10 ug/ml at initial concentration and was bound at 37° C. for 1 hour, and goat anti-Human Ig-HRP conjugate (Jackson ImmunoResearch) as a secondary antibody was diluted 1:10,000 and incubated at 37° C. for 30 minutes. The washing was carried out at three times between each step, and the TMB reaction was performed, stopped with 1N H₂SO₄ solution at the same amount of TMB solution (100 ul) and then OD value was measured at 450 nm.
(§2) As a result of the experiment, the binding affinities to CD66c antigen of the five kinds of recombinant humanized antibodies selected from among 96 kinds of recombinant humanized antibodies are shown in FIG. 4a, Table 12, FIG. 4b and Table 13. FIG. 4a and Table 12 show the binding capacity of the antibodies to CECACAM6 CD66c) antigen, and FIG. 4b and Table 13 are the results for the CEACAM1 (CD66a) antigen.
For B1, the “OD 450 nm” value came to 0.05 OD.

For the molecule B2, the “OD 450 nm” value stood at 0.18 OD.

B3: the “OD 450 nm” value amounted to 0.05 OD.

As to B4, the “OD 450 nm” value is 0.16 OD.

In the case of B5, the “OD 450 nm” value stood at 0.16 OD.

The next assay addresses T2, Antigen CD66c (CEACAM6; Sino …). Put plainly: ELISA, coated CEACAM6 100 ng/well, antibody 1.52 ng/ml. As for the experimental part: as §1, §2
Consider B1, for which the “OD 450 nm” value stood at 0.53 OD.

As for B2, the “OD 450 nm” value was 0.79 OD.

For B3, the “OD 450 nm” value was 0.48 OD.

As for B4, the “OD 450 nm” value is 0.7 OD.

In the case of B5, the “OD 450 nm” value was 0.53 OD.

For a further assay the target is unchanged. Kind of assay: ELISA, coated CEACAM6 100 ng/well, antibody 0.17 ng/ml. As for the experimental part:
as §1, §2
For B1, the “OD 450 nm” value turned out to be 0.37 OD.

As for B2, the “OD 450 nm” value was determined as 0.53 OD.

For the molecule B3, the “OD 450 nm” value turned out to be 0.3 OD.

On to B4, for which the “OD 450 nm” value stood at 0.41 OD.

Take B5: the “OD 450 nm” value is 0.4 OD.

The target in the next assay is T1, CEACAM1 antigen (Sino Biological, Inc.). Kind of assay: ELISA, coated CEACAM1 100 ng/well, antibody 0.17 ng/ml. As for the experimental part: as §1, §2
Turning to B1, the “OD 450 nm” value turned out to be 0.04 OD.

Regarding B2, the “OD 450 nm” value was 0.09 OD.

For the molecule B3, the “OD 450 nm” value amounted to 0.04 OD.

With B4, the “OD 450 nm” value is 0.08 OD.

With B5, the “OD 450 nm” value is 0.08 OD.

In the next assay the target is T2, Antigen CD66c (CEACAM6; Sino …). Kind of assay: ELISA, coated CEACAM6 100 ng/well, antibody 1111.11 ng/ml. The procedure:
as §1, §2
On to B1, for which the “OD 450 nm” value was 3.19 OD.

Turning to B2, the “OD 450 nm” value is 3.23 OD.

Consider B3, for which the “OD 450 nm” value came to 3.16 OD.

In the case of B4, the “OD 450 nm” value came to 2.74 OD.

Regarding B5, the “OD 450 nm” value is 3.3 OD.

The next assay shares this target. Put plainly: ELISA, coated CEACAM6 100 ng/well, antibody 4.57 ng/ml. The procedure: as §1, §2
Take B1: the “OD 450 nm” value came out at 0.74 OD.

On to B2, for which the “OD 450 nm” value amounted to 1.02 OD.

As for B3, the “OD 450 nm” value was 0.65 OD.

In the case of B4, the “OD 450 nm” value is 0.91 OD.

Take B5: the “OD 450 nm” value is 0.8 OD.

The target is the same in another assay. Put plainly: ELISA, coated CEACAM6 100 ng/well, antibody 123.46 ng/ml. The procedure:
as §1, §2
B1: the “OD 450 nm” value stood at 2.22 OD.

On to B2, for which the “OD 450 nm” value turned out to be 2.9 OD.

For B3, the “OD 450 nm” value amounted to 2.56 OD.

As to B4, the “OD 450 nm” value is 2.29 OD.

Turning to B5, the “OD 450 nm” value was 2.83 OD.

In the next assay the target is T1, CEACAM1 antigen (Sino Biological, Inc.). Kind of assay: ELISA, coated CEACAM1 100 ng/well, antibody 41.15 ng/ml. The procedure: as §1, §2
In the case of B1, the “OD 450 nm” value amounted to 0.07 OD.

For B2, the “OD 450 nm” value came out at 0.66 OD.

With B3, the “OD 450 nm” value amounted to 0.07 OD.

Take B4: the “OD 450 nm” value is 0.61 OD.

B5: the “OD 450 nm” value came out at 0.82 OD.

Another assay deals with T3, CD66c (CEACAM6) on CD66c-positive A549 …. Put plainly: flow cytometry on CD66c-positive A549 cells, mean fluorescence. The procedure:
(§3) Each expressed 96 recombinant humanized antibody was poured and reacted in a test tube containing the same amount ([…]) of CD66c-positive A549 non-small-cell lung cancer cell line at 4° C. for 30 minutes, washed with PBS, and treated with FITC-conjugated goat anti-Human IgG (DiNona Inc, Korea) was added and incubated at 4° C. for 15 minutes. After washing with PBS, the cells were analyzed with a flow cytometer (Stratedigm, S1000EXi) and the results are shown below.
(§4) Among the 96 recombinant humanized antibody candidates, eight were firstly selected based on the degree of expression, the presence of aggregation, and the degree of cell binding (Table 9 and Table 10, FIGS. 3A to 3E).
In the case of B1, the Mean was determined as 645.

Molecule B2 gave a Mean of 565.

On to B3, for which the Mean turned out to be 611.

Take B4: the Mean turned out to be 686.

Turning to B5, the Mean was determined as 619.

A further assay has as its target T2, Antigen CD66c (CEACAM6; Sino …). Kind of assay: ELISA, coated CEACAM6 100 ng/well, antibody 0.51 ng/ml. The procedure:
as §1, §2
With B1, the “OD 450 nm” value was 0.38 OD.

In the case of B2, the “OD 450 nm” value turned out to be 0.64 OD.

Consider B3, for which the “OD 450 nm” value came out at 0.36 OD.

For B4, the “OD 450 nm” value turned out to be 0.49 OD.

For B5, the “OD 450 nm” value was found to be 0.41 OD.

The target is the same in the next assay. Put plainly: ELISA, coated CEACAM6 100 ng/well, antibody 13.72 ng/ml. As for the experimental part: as §1, §2
As for B1, the “OD 450 nm” value is 1.06 OD.

With B2, the “OD 450 nm” value stood at 1.64 OD.

In the case of B3, the “OD 450 nm” value was 1.15 OD.

In the case of B4, the “OD 450 nm” value is 1.37 OD.

B5: the “OD 450 nm” value was 1.15 OD.

The next assay has as its target T3, CD66c (CEACAM6) on CD66c-positive A549 …. Kind of assay: flow cytometry on CD66c-positive A549 cells, FITC anti-human IgG. The procedure:
as §3, §4
On to B1, for which the “% gated” value was found to be 72%.

B2: the “% gated” value was determined as 71%.

As for B3, the “% gated” value was 71%.

Consider B4, for which the “% gated” value turned out to be 69%.

B5: the “% gated” value is 73%.

The target of the next assay is T2, Antigen CD66c (CEACAM6; Sino …). Kind of assay: ELISA, coated CEACAM6 100 ng/well, antibody 3333.33 ng/ml. The procedure: as §1, §2
Consider B1, for which the “OD 450 nm” value came to 3.18 OD.

As for B2, the “OD 450 nm” value is 3.24 OD.

On to B3, for which the “OD 450 nm” value was 3.27 OD.

Turning to B4, the “OD 450 nm” value came out at 2.95 OD.

Turning to B5, the “OD 450 nm” value is 3.41 OD.
